# Assay results: PMC2596940
# Like-named read-outs stand apart in the source and are kept apart here.
substance,measurement,setting,value
amyloid precursor protein (APP): K587R/K595R,other,SUMOylation at K587,increases
same,other,SUMOylation at K595,increases
amyloid precursor protein (APP): K595R,other,SUMOylation at K595,increases
amyloid precursor protein (APP): K587R,other,SUMOylation at K587,increases
